Assays:
[1] = target: T1, SARS-COV-2 RBD extracellular domain expressed with a C-terminal mouse IgG2a Fc (SARS-CoV-2); test: Biacore SPR, mAb captured on anti-hFc, 37 C
[2] = target: T1, SARS-COV-2 RBD extracellular domain …; test: Biacore SPR, mAb captured on anti-hFc, 25 C

B1: mAb14282 (antibody, V domains shown)
VH: QVQLVQSGAEVKKPGASVKVSCKASGYIFTDHYMHWVRQAPGQGLEWMGWINPNSGATNYAQNFQGRVTMTRDTSIITVYMELSRLRSDDTAVYYCARDSSPYMIRYTMDVWGQGTTITVSS
VL: QSALTQPASVSGSPGQSITISCTGTSSDVGSYNLVSWYQQHPGKAPKLMIYELTKRPSGVSNRFSGSKSGNTASLTISGLQAEDEADYYCSSYRGSVTDVVFGGGTKLTVLG
Kd [1]: 0.247 nM | koff [1]: 0.000546 s⁻¹ | kon [1]: 2.21e+06 M⁻¹ s⁻¹ | t½ [1]: 21.1 min | Kd [2]: 0.186 nM | koff [2]: 0.000403 s⁻¹ | kon [2]: 2.17e+06 M⁻¹ s⁻¹ | t½ [2]: 28.7 min

B2: mAb15159 (antibody, V domains shown)
VH: EVQLVESGGGLVQPGGSLRLSCAASGITVSSNYMTWVRQAPGKGLEWVSLIYSGGSTFYADSVRGRFTISRDNSKNTLYLQMNSLRAEDTAVYYCARDLVVYGMDVWGQGTTVTVSS
VL: DIQLTQSPSSLSASVGDRVTITCRASQGISSYLAWYQQKPGKAPKLLIYAASTLQSGVPSRFSGSGSGTDFTLTISSLQPEDFATYYCQHLNSDPHTFGQGTKLEIKR
Kd [1]: 0.135 nM | koff [1]: 2.99e-05 s⁻¹ | kon [1]: 220000 M⁻¹ s⁻¹ | t½ [1]: 386 min | Kd [2]: 0.0172 nM | koff [2]: 1.19e-05 s⁻¹ | kon [2]: 691000 M⁻¹ s⁻¹ | t½ [2]: 971 min

B3: mAb14234 (antibody, V domains shown)
VH: QVQLVESGGGVVQPGRSLRLSCAASGFTFSSYGIHWVRQAPGKGLEWVAIIWYDGSEKYYADSVKGRFTISRDNSKNTLFLQMNSLEAEDTAVYYCARGPDLLTGYYNYFYYGMDVWGQGTTVTVSS
VL: QSVLTQPPSVSGAPGQRVTISCTGSSSNIGIGYDVHWYQQLPGTVPKLLIYGNTNRPSGVPDRFSGSKSGTSASLAITGLQAEDEADYYCQSYDSSLSSYVFGTGTKVTVLG
Kd [1]: 0.41 nM | koff [1]: 0.000402 s⁻¹ | kon [1]: 980000 M⁻¹ s⁻¹ | t½ [1]: 28.8 min | Kd [2]: 0.119 nM | koff [2]: 0.000121 s⁻¹ | kon [2]: 1.02e+06 M⁻¹ s⁻¹ | t½ [2]: 95.2 min

B4: mAb14281 (antibody, V domains shown)
VH: QVQLVQSGADVKKPGASVKVSCKTSGYIFTGYYIHWVRQAPGQGLEWMGWINPNSGGTNSAQKFQGRVTMTRDTSISTVYMELSRLRSDDTAVYYCAKSNSFSVLDYNFDYWGQGTLVTVSS
VL: SSELTQDPAVSVALGQTVRITCQGDSLRSYYASWYQQKPGQAPVLVIYDKNNRPSGIPDRFSGSSSGNTASLTITGAQAEDEADYYCNSRDSSRNHLVVFGGGTKLTVLG
Kd [1]: 0.271 nM | koff [1]: 0.000365 s⁻¹ | kon [1]: 1.34e+06 M⁻¹ s⁻¹ | t½ [1]: 31.7 min | Kd [2]: 0.146 nM | koff [2]: 0.000213 s⁻¹ | kon [2]: 1.46e+06 M⁻¹ s⁻¹ | t½ [2]: 54.3 min

B5: mAb14256 (antibody, V domains shown)
VH: QVQLQESGPGLVKPSETLSLTCTVSGGSISSHYWSWIRQPPGKGLEWIGYIYYSGSSNYNPSLKSRVTISVDTSKNQFSLKLNSVTAADTAVYYCARHYDILTGFDWFDPWGQGTLVTVSS
VL: QSVLTQPPSVSGAPGQRVTISCTGSSSNIGTHYDVHWYQQLPGTAPKLLIYGNSNRPSGVPDRFSGSKSGTSASLAITGLQAEDEADYYCQSFDNSLTAPYVFGTGTKVTVLG
Kd [1]: 0.267 nM | koff [1]: 0.000473 s⁻¹ | kon [1]: 1.78e+06 M⁻¹ s⁻¹ | t½ [1]: 24.4 min | Kd [2]: 0.0638 nM | koff [2]: 0.000181 s⁻¹ | kon [2]: 2.84e+06 M⁻¹ s⁻¹ | t½ [2]: 63.7 min

B6: mAb15161 (antibody, V domains shown)
VH: EVQLVESGGGLVQPGGSLRLSCAASGFTFSSYEMNWVRQAPGKGLEWVSYISSSGSILYYADSVKGRFTASRDNAKNSLYLQMNSLRAEDTGVYYCARREYQLLRPFEFWGQGTLVTVSS
VL: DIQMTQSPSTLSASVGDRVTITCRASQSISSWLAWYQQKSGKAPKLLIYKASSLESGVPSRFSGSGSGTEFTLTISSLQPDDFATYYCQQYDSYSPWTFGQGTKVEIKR
Kd [1]: 0.0469 nM | koff [1]: 4.9e-05 s⁻¹ | kon [1]: 1.05e+06 M⁻¹ s⁻¹ | t½ [1]: 236 min | Kd [2]: 0.0119 nM | koff [2]: 1.26e-05 s⁻¹ | kon [2]: 1.06e+06 M⁻¹ s⁻¹ | t½ [2]: 914 min

B7: mAb15156 (antibody, V domains shown)
VH: QLQLQESGPGLVKSSETLSLTCTVSASITGSTYYWGWIRQPPGKGLEWIGSIYYSGTTYYKASLKSRVTISVDTSKNQFSLKLTSVTVADTAVYYCVSHLLGNYHKYGMDVWGQGTTVTVSS
VL: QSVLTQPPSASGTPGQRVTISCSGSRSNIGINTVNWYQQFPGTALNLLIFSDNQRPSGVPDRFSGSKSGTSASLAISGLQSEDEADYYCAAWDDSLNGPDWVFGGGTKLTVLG
Kd [1]: 0.63 nM | koff [1]: 0.000112 s⁻¹ | kon [1]: 178000 M⁻¹ s⁻¹ | t½ [1]: 103 min | Kd [2]: 0.0369 nM | koff [2]: 5.22e-05 s⁻¹ | kon [2]: 1.41e+06 M⁻¹ s⁻¹ | t½ [2]: 221 min

B8: mAb14285 (antibody, V domains shown)
VH: QVQLVQSGAEVKKPGASVKVSCKASGYTFTGYFIHWVRQAPGQGLEWMGWISPISGGTNYAQKFQGRVTVTRDTSITTAYMELSRLTSDDTAVYHCAREGGTWKGDFDYWGQGTLVTVSS
VL: QSALTQPASVSGSPGQSITISCTGTSSDVESYNLVSWYQQHPGKAPKLMIYEGSKRPSGVSNRFSGSKSGNTASLTISGLQAEDEADYYCSSYAGSSTWVFGGGTKLTVLG
Kd [1]: 0.231 nM | koff [1]: 0.00103 s⁻¹ | kon [1]: 4.45e+06 M⁻¹ s⁻¹ | t½ [1]: 11.2 min | Kd [2]: 0.0868 nM | koff [2]: 0.000502 s⁻¹ | kon [2]: 5.78e+06 M⁻¹ s⁻¹ | t½ [2]: 23 min

B9: mAb14286 (antibody, V domains shown)
VH: QVQLVQSGAEVKKPGASVKVSCKASGYTFTDYFIHWVRQAPGQGLEWMGWINPTSGGTNYAQKFRGRVTMTRDTSISTAYVELSRLRSDDTALYYCARDLPFYSDTKQFDYWGQGTLVTVSS
VL: QSALTQPASVSGYPGQSITISCTGTSSDVGGYNYVSWYQQHPGKAPKLMIFDVSNRPSGVSNRFSGSKSGNTASLTFSGLQAEDEADYYCSSYTSSSTLVFGGGTKLTVLG
Kd [1]: 0.18 nM | koff [1]: 0.000528 s⁻¹ | kon [1]: 2.94e+06 M⁻¹ s⁻¹ | t½ [1]: 21.9 min | Kd [2]: 0.222 nM | koff [2]: 0.000655 s⁻¹ | kon [2]: 2.95e+06 M⁻¹ s⁻¹ | t½ [2]: 17.6 min

B10: mAb14280 (antibody, V domains shown)
VH: QVQLVQSGAEVKKPGASVRVSCKASGYTFTGNYIHWVRQAPGQGLEWMAWINPNSGGKNYAQKFQGRVTLTRDTSVNTAYMELSRLRSDDTAMYYCARDVNYNILTGPGGLWGQGTLVTVSS
VL: QSALTQPPSASGSPGQSVTISCTGTSSDVGGYNFVSWYQQHPGKAPKLMIYEVSKRPSGVPDRFSGSKSGNTASLTVSGLQAEDEADYYCSSYAGSNNFVFGTGTKVTVLG
Kd [1]: 0.264 nM | koff [1]: 0.000772 s⁻¹ | kon [1]: 2.92e+06 M⁻¹ s⁻¹ | t½ [1]: 15 min | Kd [2]: 0.123 nM | koff [2]: 0.00037 s⁻¹ | kon [2]: 3.02e+06 M⁻¹ s⁻¹ | t½ [2]: 31.2 min

B11: mAb14230 (antibody, V domains shown)
VH: EVQLVESGGGLIQPGRSLRLSCAASGFTFDDYAMHWVRQAPGKGLEWVSGISWNSVSIDYADSVKGRFTISRDNAKNSLYLQMTSLTVEDTALYYCAKAFGYETLTGSDYFAYWGPGTLVTVSS
VL: EIVLTQSPGTLSLSPGERATLSCRASQTVISTYLAWYQQKPGQSPRLLIYGASSRATGIPDRFSGSGSGTDFTLTISRLEPEDFAVYYCQQYGSSPQLTFGGGTKVEIKR
Kd [1]: 0.268 nM | koff [1]: 0.00049 s⁻¹ | kon [1]: 1.82e+06 M⁻¹ s⁻¹ | t½ [1]: 23.6 min | Kd [2]: 0.142 nM | koff [2]: 0.000286 s⁻¹ | kon [2]: 2e+06 M⁻¹ s⁻¹ | t½ [2]: 40.5 min

B12: mAb15157 (antibody, V domains shown)
VH: EVQLVESGGALVQPGGSLRLSCAASGFPFTIYAMTWVRQAPGKGLEWVSVITGSGDSTYYADSVKGRFTISRDNSKNTLYLQMNSLRAEDTAVYYCVKTGEGFFYYYYGMDVWGQGTTVTVSS
VL: QSVLTQPPSVSAAPGQKVTISCSGSSSNIGNSYISWYQQLPGTAPKLLIYVNNKRPSGIPDRFSGSKSGTSATLGITGLQTGDEADYYCGTWDSSLSAGVFGSGTKVTVLG
Kd [1]: 0.116 nM | koff [1]: 0.000107 s⁻¹ | kon [1]: 922000 M⁻¹ s⁻¹ | t½ [1]: 108 min | Kd [2]: 0.187 nM | koff [2]: 6.67e-05 s⁻¹ | kon [2]: 357000 M⁻¹ s⁻¹ | t½ [2]: 173 min

B13: mAb15160 (antibody, V domains shown)
VH: EVQLVESGGGLVQPGGSLRLSCSASGFTFSRYAMYWVRQAPGKGLEYVSAISSDGGSTYDADSVKGRFTISRANSKNTLYLQMSSLRAEDTAVYYCVKGLRELLYYYYGMDVWGQGTTVTVSS
VL: DIQMTQSPSSLSASVGDRVTITCRAGQSISSFLNWYQQKPGKAPKLLIYAASSLQSGVPSRFSGSGSGTDFTLTISSLQPEDFATYYCQQSYITPFTFGPGTKVDIKR
Kd [1]: 0.181 nM | koff [1]: 7.9e-05 s⁻¹ | kon [1]: 436000 M⁻¹ s⁻¹ | t½ [1]: 146 min | Kd [2]: 0.0406 nM | koff [2]: 1.05e-05 s⁻¹ | kon [2]: 258000 M⁻¹ s⁻¹ | t½ [2]: 1100 min

B14: mAb14292 (antibody, V domains shown)
VH: EVQLVESGGGLVQPGGSLRLSCVASGFAFSTYEMNWVRQAPGKGLEWVSYISSSGSTIYYADSVKGRLTISRDNVKNSLYLQMNSLRVEDTAIYYCARDAIRNNDILTDPATFDPWGQGTLVTVSS
VL: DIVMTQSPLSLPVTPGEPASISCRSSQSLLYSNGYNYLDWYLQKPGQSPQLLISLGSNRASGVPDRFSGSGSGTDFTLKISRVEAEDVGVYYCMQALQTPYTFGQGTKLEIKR
Kd [1]: 34.6 nM | koff [1]: 0.0644 s⁻¹ | kon [1]: 1.86e+06 M⁻¹ s⁻¹ | t½ [1]: 0.2 min | Kd [2]: 33.6 nM | koff [2]: 0.0351 s⁻¹ | kon [2]: 1.04e+06 M⁻¹ s⁻¹ | t½ [2]: 0.3 min

B15: mAb15158 (antibody, V domains shown)
VH: EVQLVESGGGLVQPGGSLRLSCAASGFSFSSNWMSWVRQAPGKGLEWVGNINQDGSEKYYVDSVEGRFTISRDNAKKSLYLQMNSLRAEDTAVYYCARDLGVLWFGDFVDWGQGALVTVSS
VL: DIQMTQSPSSLSASVGDRVTITCRASQAISNSLAWYQQKPGKAPKLLLYAASTLESGVPSRFSGSGSGTDYTLTISSLQPEDFATYYCLQYYGSPRTFGQGTKVEIKR
Kd [1]: 0.17 nM | koff [1]: 2.9e-05 s⁻¹ | kon [1]: 171000 M⁻¹ s⁻¹ | t½ [1]: 398 min | Kd [2]: ≤ 0.0221 nM | koff [2]: ≤ 1e-05 s⁻¹ | kon [2]: 453000 M⁻¹ s⁻¹ | t½ [2]: 1160 min

B16: mAb14232 (antibody, V domains shown)
VH: QITLKESGPTLVKPTQTLTLTCTFSGFSLSASGVGVGWIRQPPGKALEWLALIYWDDDKRYSPSLKSRLTITKDTSKNQVVLTMTNMDPVDTATYYCAQHKVATIFDYWGQGTLVTVSS
VL: QSALTQPPSASGSPGQSVTISCTATSSDVGNYNYVSWYQQHPGKAPKLMIYEVTKRPSGVPDRFSGSKSGNTASLTVSGLQAEDEADYYCSSYAGSWGVFGGGTKLTVLG
Kd [1]: 0.893 nM | koff [1]: 0.00188 s⁻¹ | kon [1]: 2.1e+06 M⁻¹ s⁻¹ | t½ [1]: 6.1 min | Kd [2]: 0.878 nM | koff [2]: 0.00173 s⁻¹ | kon [2]: 1.97e+06 M⁻¹ s⁻¹ | t½ [2]: 6.7 min

From patent US20260069689A1 (Regeneron, published 2026)
